The record followed here is publication PMC10342849, “Feruloyl Esterase (LaFae) from Lactobacillus acidophilus: Structural Insights and Functional Characterization for Application in Ferulic Acid Production” (International Journal of Molecular Sciences, 2023).

For data set [1], the target named is Feruloyl esterase (LaFae) from Lactobacillus acidophilus (Lactobacillus acidophilus). As to the kind of experiment: AUC; 20 mM Tris-HCl (pH 8.0), ProteomeLab XL-A, sedimentation profile at 280 nm analysed with SEDFIT.
For data set [2] the target is unchanged. Briefly: SEC; gel filtration on HiPrep S-200R column in 20 mM Tris-HCl (pH 8.0), molecular weight from a standard curve of protein standards.
Substrate in the data set “purified protein”: CCCC(=O)Oc1ccc([N+](=O)[O-])cc1
As to the kind of experiment: purified protein. It is filed as biochemical, Lactobacillus acidophilus. Conditions: hydrolysis; His6-tagged enzyme.

Consider “Feruloyl esterase (LaFae) from Lactobacillus acidophilus (enzyme)”, for which, in data set [1], the percent of the sample in the dimer peak is 95.3% and the stoichiometry N – broadly, the number of molecules, sites or subunits per partner or assembly – is 2. The same molecule showed a stoichiometry N in data set [2] of 2.

B1: LaFae (Lactobacillus acidophilus NCFM) (protein)
chain: MSRITIERDGLTLVGDREEPFGEIYDMAILMHGFTANRNTPLLRQIADNLRDENVASVRFDFNGHGESDGAFEDMTVCNEIADAQKILEYVRTDPHVRNIFLVGHSQGGVVASMLAGLYPDIVKKVVLLAPAAQLKDDALNGDTQGATYNPEHIPAAIPFHGKKLGGFYLRTAQVLPIYEIAKHYTNPVSIIVGSNDQVVAPKYSKKYDEVYENSELHMVPDADHSFTGQYKDSAVDLTAEFLKPLF
notes: His6-tagged, pET-21a (BamHI/XhoI), E. coli BL21(DE3); dimer in solution; catalytic triad Ser106, Asp197, His225
Regarding B1, in “purified protein”, the Km (commonly the substrate concentration at which the rate is half of its maximum) was 1160 µM.
